The record followed here is patent US20190144566A1 (ORUM THERAPEUTICS, published 2019).

This assay addresses T1, mCherry (red fluorescence) H-RAS G12V (UniProt P01112 1-186).
T1 construct: Expressed inside NIH3T3 cells, located at the inner cell membrane; also called intracellular H-RAS G12V mutants; not shown: mCherry red fluorescent protein
In words: confocal co-localisation in NIH3T3 cells expressing mCherry H-RAS G12V.

B1: cytosol-penetrating antibody (cytotransmab) TMab4 (antibody, V domains shown)
VH: EVQLVESGGGLVQPGGSLRLSCAASGYTFTSYVMHWVRQAPGKGLEWVSAINPYNDGNYYADSVKGRFTISRDNSRKTLYLQMNSLRAEDTAVYYCARGAYKRGYAMDYWGQGTTVTVSS
VL: DLVMTQSPSSLSASVGDRVTITCKSSQSLFNSRTRKNYLAWYQQKPGKAPKLLIYWASTRESGVPSRFSGSGSGTDFTLTISSLQPEDFATYYCQQYYYHMYTFGQGTKVEIKR
notes: Intact IgG-format monoclonal antibody with CH1-hinge-CH2-CH3 and CL; Used as negative control in the RAS assays; also called CT
Turning to B1, the binding result is reported as “no binding (tested: 2 µM)”.
